Non-standard residues stand in square brackets, D forms with d. No end group written: not given here. Phe(4-NO2) = N[C@@H](Cc1ccc([N+](=O)[O-])cc1)C(=O)O; pS = N[C@@H](COP(=O)(O)O)C(=O)O; βAla = NCCC(=O)O
B1: 14-3-3γ (natural protein)
chain: MVDREQLVQKARLAEQAERYDDMAAAMKNVTELNEPLSNEERNLLSVAYKNVVGARRSSWRVISSIEQKTSADGNEKKIEMVRAYREKIEKELEAVCQDVLSLLDNYLIKNCSETQYESKVFYLKMKGDYYRYLAEVATGEKRATVVESSEKAYSEAHEISKEHMQPTHPIRLGLALNYSVFYYEIQNAPEQACHLAKTAFDDAIAELDTLNEDSYKDSTLIMQLLRDNLTLWTSDQQDDDGGEGNN

Assays:
[1] = molecular target: FITC-labeled 14-3-3.1 (FITC label (position not given); phosphoserine fixed in the middle, flanked by four varied positions on either side; non-canonical amino acids; C-terminal motif Nph-β-Ser-(β-Ala/β-Ser)-Nph; …); assay: FP
[2] = molecular target: B1; assay: FP; competition with FITC-BiExoS
[3] = molecular target: B1; assay: FP

Binder: B1
- Kd [1]: 5.7 nM

B2: 14-3-3.12, unlabeled (peptide)
chain: KVF[thiazolylalanine][pS][Phe(4-NO2)]S[βAla][Phe(4-NO2)]K-NH2
modifications: not fully specified (residue 7); also: position 7 is a β-residue, identity not given here
- IC50 [2]: 198 nM

B3: FITC-labeled 14-3-3.12 (peptide)
chain: KVF[thiazolylalanine][pS][Phe(4-NO2)]S[βAla][Phe(4-NO2)]K-NH2
modifications: not fully specified (residue 7); also: FITC label, position not given here, position 7 is a β-residue, identity not given here
- Kd [3]: 19 nM

— PMC7311396 (2020)
